Results published in patent US20220282217A1 (BIONTECH US, published 2022).
One block for each binder: values may come before it.

What was measured:
[1] = target: T1, HLA class I molecule B07.02; assay: competition with radiolabeled reference peptide on purified MHC I
T1 construct: Purified MHC class I complex; also called HLA-B07:02
Description: (§1) Peptides were incubated at varying concentrations with these complexes for 2 days, and the amount of remaining radiolabeled peptide bound to […] was measured using size exclusion gel-filtration.

[2] = target: T2, HLA class I molecule B08.01; assay: pMHC-I dissociation assay with 125I-labeled beta2m light chain at 37 C, scintillation counts; time in hours for half of the complexes to dissociate
T2 construct: Purified MHC class I complex; also called HLA-B08:01
Description: (§2) Briefly, synthetic genes encoding biotinylated MHC-I heavy and light chains are expressed in E. coli and purified from inclusion bodies using standard methods. […] These reactions are carried out in streptavidin coated microplates to bind the biotinylated MHC-I heavy chains to the surface and allow measurement of radiolabeled light chain to monitor complex formation. Dissociation is initiated by addition of higher concentrations of unlabeled light-chain and incubation at 37° C. Stability is defined as the length of time in hours it takes for half of the complexes to dissociate, as measured by scintillation counts.

[3] = target: T1, HLA class I molecule B07.02; assay: as above
Description: as §2

[4] = target: HLA-B08.01 class I MHC molecule (prepared complex) (human); assay: dissociation of peptide-MHC-I complex at 37 C, 125I-labelled b2m, scintillation
Description: as §2

HLA-B07.02 [5] = target: T3, HLA-B07.02 (human); assay: pMHC-I dissociation half-life, 125I-b2m
T3 construct: Purified class I MHC
How it was run: (§3)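 Biotinylated MHC-I heavy chain made in E. coli, captured on streptavidin plates and complexed with peptide and radiolabelled light chain. Dissociation started with excess unlabelled light chain at 37 °C. Stability is the half-life in hours from scintillation counts.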

HLA-B07.02 [6] = target: T3, HLA-B07.02; assay: competition with radiolabeled reference peptide, purified MHC I
Description: as §1

HLA-A03.01 [7] = target: T4, HLA-A03.01 (human); assay: competition vs radiolabeled reference peptide on purified MHC I, gel filtration
T4 construct: As for HLA-A02.01
Description: as §1

HLA-A01.01 = target: T5, HLA-A01.01 (human); assay: as above
T5 construct: As for HLA-A02.01
Description: as §1

HLA-A02.01 [8] = target: HLA-A02.01 (human); assay: pMHC-I complex dissociation at 37 C, 125I-b2m, half-life
How it was run: as §3

HLA-B08.01 [9] = target: T6, HLA-B08.01 (human); assay: as above
T6 construct: As for HLA-A02.01
How it was run: as §3

HLA-A02.01 [10] = target: HLA-A02.01 (human); assay: competition vs radiolabeled reference peptide on purified MHC I, gel filtration
Description: as §1

HLA-B08.01 [11] = target: T6, HLA-B08.01; assay: as above
Description: as §1

HLA-A03.01 [12] = target: T7, HLA-A03.01 (human); assay: pMHC-I dissociation half-life, 125I-b2m
T7 construct: Purified class I MHC
How it was run: as §3

HLA-A11.01 [13] = target: T8, HLA-A11.01 (human); assay: pMHC-I dissociation half-life, 125I-b2m
T8 construct: Purified class I MHC
How it was run: as §3

HLA-A24.02 [14] = target: T9, HLA-A24.02 (human); assay: pMHC-I complex dissociation at 37 C, 125I-b2m, half-life
T9 construct: As for HLA-A02.01
How it was run: as §3

HLA-A24.02 [15] = target: T9, HLA-A24.02; assay: competition vs radiolabeled reference peptide on purified MHC I, gel filtration
Description: as §1

HLA-B07.02 [16] = target: T10, HLA-B07.02 (human); assay: as above
T10 construct: As for HLA-A02.01
Description: as §1

HLA-A03.01 [17] = target: T7, HLA-A03.01; assay: competition with radiolabeled reference peptide, purified MHC I
Description: as §1

HLA-A11.01 [18] = target: T8, HLA-A11.01; assay: as above
Description: as §1

HLA-B08.01 [19] = target: T11, HLA-B08.01 (human); assay: pMHC-I dissociation half-life, 125I-b2m
T11 construct: Purified class I MHC
How it was run: as §3

[20] = target: T12, HLA class I molecule A03.01; assay: competition with radiolabeled reference peptide on purified MHC I
T12 construct: Purified MHC class I complex; also called HLA-A03:01
Description: as §1

[21] = target: T12, HLA class I molecule A03.01; assay: pMHC-I dissociation assay with 125I-labeled beta2m light chain at 37 C, scintillation counts; time in hours for half of the complexes to dissociate
Description: as §2

[22] = target: T13, HLA class I molecule A02.01; assay: competition with radiolabeled reference peptide on purified MHC I
T13 construct: Purified MHC class I complex; also called HLA-A02:01
Description: as §1

[23] = target: T13, HLA class I molecule A02.01; assay: pMHC-I dissociation assay with 125I-labeled beta2m light chain at 37 C, scintillation counts; time in hours for half of the complexes to dissociate
Description: as §2

HLA-A02.01 [24] = target: T14, HLA-A02.01 (human); assay: pMHC-I dissociation half-life, 125I-b2m
T14 construct: Purified class I MHC
How it was run: as §3

Binder: MFATLQRSSL (also called GATA3 . . ; CSNH)
IC50 [1]: 267 nM
Observed MHC Stability [2]: 0 h
Observed MHC Stability [3]: 0 h

B1: EGFR_T790M peptide VQLIMQLMPF (peptide)
peptide: VQLIMQLMPF
notes: synthetic peptide holding the EGFR T790M mutation
Stability (half-life (hr.)) [4]: 0 h

Binder: KPTRAATVSV (also called TP53, QPSL)
Stability (T1/2 (h)) (HLA-B07.02 [5]): 3 h
IC50 (HLA-B07.02 [6]): 8 nM

Binder: CLSFLSSWDY (also called C15ORF40(+1))
IC50 (HLA-A03.01 [7]): 2710 nM
IC50 (HLA-A01.01): 987 nM

Binder: LATEKSRWSG (also called BRAF, V600E)
Stability (T1/2 (h)) (HLA-A02.01 [8]): 0 h
Stability (T1/2 (h)) (HLA-B08.01 [9]): 0 h
IC50 (HLA-A02.01 [10]): 23300 nM
IC50 (HLA-B08.01 [11]): 46600 nM

Binder: VVGACGVGK (also called KRAS, G12C)
Measured stability (HLA-A03.01 [12]): 5 h
Measured stability (HLA-A11.01 [13]): 10 h

Binder: VVPLCDLLL (also called ESR1, Y537C)
Stability (T1/2 (h)) (HLA-A02.01 [8]): 0 h
Stability (T1/2 (h)) (HLA-A24.02 [14]): 0.4 h
IC50 (HLA-A02.01 [10]): 1200 nM
IC50 (HLA-A24.02 [15]): 3890 nM

Binder: KPKRDGYMFL (also called GATA3 . . ; CSNH)
IC50 [1]: 98.1 nM
Observed MHC Stability [3]: 3.3 h

Binder: KPKRDGYMF (also called GATA3 . . ; CSNH)
IC50 [1]: 28.2 nM
Observed MHC Stability [3]: 8.6 h

Binder: GPPARVPAV (also called GATA3 . . ; CSNH)
IC50 [1]: 221 nM
Observed MHC Stability [3]: 1.6 h

Binder: KGPELFPLI (also called C11orf95: RELA)
Stability (T1/2 (h)) (HLA-A02.01 [8]): 0.3 h
Stability (T1/2 (h)) (HLA-A24.02 [14]): 1.7 h
IC50 (HLA-A02.01 [10]): 101 nM
IC50 (HLA-A24.02 [15]): 14 nM

Binder: GVYTFLPSTL (also called ESR1, S463P)
Stability (T1/2 (h)) (HLA-A02.01 [8]): 0.4 h
Stability (T1/2 (h)) (HLA-A24.02 [14]): 0 h
IC50 (HLA-A02.01 [10]): 1200 nM
IC50 (HLA-A24.02 [15]): 7700 nM

Binder: HPRPAPASA (also called TP53, SHST)
Stability (T1/2 (h)) (HLA-B08.01 [19]): 0 h
Stability (T1/2 (h)) (HLA-B07.02 [5]): 4.9 h
IC50 (HLA-B07.02 [6]): 11 nM

B2: EGFR_T790M peptide QLIMQLMPF (peptide)
peptide: QLIMQLMPF
notes: as for B1
Stability (half-life (hr.)) [4]: 0 h

B3: EGFR_T790M peptide MQLMPFGCLL (peptide)
peptide: MQLMPFGCLL
notes: as for B1
Stability (half-life (hr.)) [4]: 0 h

Binder: KISNWSLKK (also called SMAP1(-1))
IC50 (HLA-A03.01 [17]): 8.8 nM
IC50 (HLA-A11.01 [18]): 9.8 nM

Binder: FLPSTLKSL (also called ESR1, S463P)
Stability (T1/2 (h)) (HLA-B08.01 [9]): 0 h
IC50 (HLA-B08.01 [11]): 1970 nM

Binder: LPSQRRNHWM (also called TP53, CSES)
Stability (T1/2 (h)) (HLA-B08.01 [19]): 0.7 h
Stability (T1/2 (h)) (HLA-B07.02 [5]): 6.5 h
IC50 (HLA-B07.02 [6]): 10 nM

Binder: LPRKPTRAAT (also called TP53, QPSL)
Stability (T1/2 (h)) (HLA-B07.02 [5]): 3.7 h
IC50 (HLA-B07.02 [6]): 3 nM

Binder: FATLQRSSL (also called GATA3 . . ; CSNH)
IC50 [1]: 14 nM
Observed MHC Stability [2]: 0 h
Observed MHC Stability [3]: 0.7 h

B4: EGFR_T790M peptide MQLMPFGCL (peptide)
peptide: MQLMPFGCL
notes: as for B1
Stability (half-life (hr.)) [4]: 0 h

B5: EGFR_T790M peptide IMQLMPFGCL (peptide)
peptide: IMQLMPFGCL
notes: as for B1
Stability (half-life (hr.)) [4]: 0 h

Binder: LATEKSRWS (also called BRAF, V600E)
Stability (T1/2 (h)) (HLA-A02.01 [8]): 0 h
Stability (T1/2 (h)) (HLA-B08.01 [9]): 0 h
IC50 (HLA-A02.01 [10]): 61000 nM
IC50 (HLA-B08.01 [11]): 37000 nM

Binder: AMTTSSSQK (also called TGFBR2(-1))
IC50 (HLA-A03.01 [17]): 8.3 nM
IC50 (HLA-A11.01 [18]): 162 nM

Binder: MLTGPPARV (also called GATA3 . . ; CSNH)
IC50 [22]: 10.6 nM
Observed MHC Stability [23]: 5.8 h

Binder: LSFLSSWDY (also called C15ORF40(+1))
IC50 (HLA-A01.01): 52.9 nM

Results, then the binder that gave them:

Measured stability (HLA-A11.01 [13]): 3.4 h
Binder: VVGADGVGK (also called KRAS, G12D)

Stability (T1/2 (h)) (HLA-A02.01 [8]): 0 h
Stability (T1/2 (h)) (HLA-A24.02 [14]): 0.5 h
IC50 (HLA-A02.01 [10]): 2550 nM
IC50 (HLA-A24.02 [15]): 8250 nM
Binder: VVPLSDLLL (also called ESR1, Y537S)

IC50 (HLA-B07.02 [16]): 79.5 nM
Binder: YPAYSKDSGL (also called β2M, . . ; SIRH)

IC50 (HLA-A03.01 [17]): 4.4 nM
IC50 (HLA-A11.01 [18]): 129 nM
Binder: SLKKVPALK (also called SMAP1(-1))

Measured stability (HLA-A03.01 [12]): 2.3 h
Measured stability (HLA-A11.01 [13]): 13 h
Binder: VVVGADGVGK (also called KRAS, G12D)

Measured stability (HLA-A03.01 [12]): 6.7 h
Measured stability (HLA-A11.01 [13]): 24.3 h
Binder: VVVGAVGVGK (also called KRAS, G12V)

Stability (T1/2 (h)) (HLA-B08.01 [9]): 1.3 h
IC50 (HLA-B08.01 [11]): 417 nM
Binder: WLHKRGKYI (also called AKT1, E17K)

IC50 (HLA-B07.02 [16]): 27.9 nM
Binder: VPLYGLLLEM (also called ESR1, D538G)

IC50 (HLA-A03.01 [17]): 15.7 nM
IC50 (HLA-A11.01 [18]): 15.8 nM
Binder: SAMTTSSSQK (also called TGFBR2(-1))

IC50 [20]: 79.8 nM
Observed MHC Stability [21]: 0.3 h
Binder: YMFLKAESK (also called GATA3 . . ; CSNH)

IC50 [22]: 118 nM
Observed MHC Stability [23]: 0.5 h
Binder: TLQRSSLWCL (also called GATA3 . . ; CSNH)

IC50 (HLA-A03.01 [7]): 95.9 nM
IC50 (HLA-A01.01): 13.2 nM
Binder: YMANGSLLNY (also called BTK, C481S)

IC50 (HLA-A01.01): 4370 nM
Binder: MSVCFFFFCY (also called CNOT1(-1))

Stability (T1/2 (h)) (HLA-A02.01 [8]): 0 h
Stability (T1/2 (h)) (HLA-A24.02 [14]): 2.6 h
IC50 (HLA-A02.01 [10]): 2060 nM
IC50 (HLA-A24.02 [15]): 2150 nM
Binder: YLVIQLQDKF (also called EGFR: SEPT14)

Stability (T1/2 (h)) (HLA-A02.01 [24]): 18.7 h
Stability (T1/2 (h)) (HLA-A03.01 [12]): 0 h
Binder: RLSSCVPVA (also called TGFBR2(-1))
